From the supplement of paper PMC7877785
± gives the uncertainty stated by the source.

Test: self-splicing fitness, log relative to wild type (ln ratio); higher = more splicing; Tetrahymena group I intron in knt gene, E. coli kanamycin selection, DiMSum; sequences stand for … in CUCUCU…GGAGGGAAAAGUUAUCAGGCAUGCACCUGGUAGCUAGUCUUUAAACCAAUAGAUUGCAUCGGUUUAAAAGGCAAGACCGUCAAAUUGCGGGAAAGGGGUCAACAGCCGUUCAGUACCAAGUCUCAGGGGAAACUUUGAGAUGGCCUUGCAAAGGGUAUGGUAAUAAGCUGACGGACAUGGUCCUAACCACGCAGCCAAGUCCUAAGUCAACAGAUCUUCUGUUGAUAUGGAUGCAGUUCACAGACUAAAUGUCGGUCGGGGAAGAUGUAUUCUUCUCAUAAGAUAUAGUCGGACCUCUCCUUAAUGGGAGCUAGCGGAUGAAGUGAUGCAACACUGGAGCCGCUGGGAACUAAUUUGUAUGCGAAAGUAUAUUGAUUAGUUUUGGAGUACUCGUGGUCG
Procedure, shortened: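 Six replicate transformations of E. coli BL21(DE3) with a pET-22b(+) library were grown overnight at 37°C or 30°C. The library randomised all eight P1ex-region intron nucleotides, the intron lying in the knt kanamycin-resistance gene, and plates were LB agar with or without 25 μg/mL kanamycin plus 100 μg/mL carbenicillin, 50 μM IPTG and 0.2% rhamnose. Pooled colonies were amplicon-sequenced on an Illumina HiSeq 2500, and fitness is the DiMSum error-weighted combination of wild-type-normalised replicate fold changes, kanamycin versus none.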

| Sequence | self-splicing fitness (ln) (30 °C) | self-splicing fitness (ln) (37 °C) |
| --- | --- | --- |
| CGCGAGCAAUAUUACGUCAA | -2.88 ± 0.31 |  |
| CGCGAGCAAUAUUACGUCUC | -3.71 ± 0.35 | -2.28 ± 0.33 |
| CGCGAGCAAUAUUACGUGAC |  | -2.54 ± 0.3 |
| CGCGAGCAAUAUUACGUGCG |  | -3.3 ± 0.47 |
| CGCUAGCAAUAUUACGAGGU | -3.83 ± 0.31 | -2.58 ± 0.23 |
| CGCUAGCAAUAUUACGAUAU | -3.98 ± 0.36 | -2.63 ± 0.25 |
| CGCUAGCAAUAUUACGAUGC | -4.31 ± 0.46 | -2.58 ± 0.36 |
| CGCUAGCAAUAUUACGCGGC | -3.25 ± 0.35 | -3.1 ± 0.29 |
| CGCUAGCAAUAUUACGCUGG | -2.63 ± 0.28 | -1.85 ± 0.36 |
| CGCUAGCAAUAUUACGCUUG | -3.3 ± 0.27 | -3 ± 0.4 |
| CGCUAGCAAUAUUACGGAAU | -3.52 ± 0.28 | -2.02 ± 0.26 |
| CGCUAGCAAUAUUACGGAUA | -2.99 ± 0.17 | -2.14 ± 0.22 |
| CGCUAGCAAUAUUACGGAUG | -1.13 ± 0.075 | -0.108 ± 0.096 |
| CGCUAGCAAUAUUACGGCCU | -0.677 ± 0.073 | -0.609 ± 0.1 |
| CGCUAGCAAUAUUACGGGCC | -2.29 ± 0.17 | -1.92 ± 0.19 |
| CGCUAGCAAUAUUACGGUGA | -2.28 ± 0.14 | -0.996 ± 0.11 |
| CGCUAGCAAUAUUACGUACU | -2.86 ± 0.15 | -0.0116 ± 0.18 |
| CGCUAGCAAUAUUACGUAGU | -3.48 ± 0.13 | -1.34 ± 0.12 |
| CGCUAGCAAUAUUACGUUGU | -3.3 ± 0.2 | -1.59 ± 0.18 |
| CGGAAGCAAUAUUACGAACA | -1.18 ± 0.12 | -0.826 ± 0.13 |

| Sequence | self-splicing fitness (ln) (30 °C) | self-splicing fitness (ln) (37 °C) |
| --- | --- | --- |
| CGGAAGCAAUAUUACGACAG | -0.256 ± 0.17 | 0.0808 ± 0.23 |
| CGGAAGCAAUAUUACGACCU | 0.28 ± 0.096 | 0.399 ± 0.11 |
| CGGAAGCAAUAUUACGACGG | -0.101 ± 0.13 | -0.695 ± 0.14 |
| CGGAAGCAAUAUUACGAGAG | -3.45 ± 0.49 | -1.65 ± 0.26 |
| CGGAAGCAAUAUUACGAGGA | -1.95 ± 0.2 | -1.4 ± 0.19 |
| CGGAAGCAAUAUUACGCACU | -2.24 ± 0.13 | -0.396 ± 0.11 |
| CGGAAGCAAUAUUACGCAUG | -1.53 ± 0.13 | -0.32 ± 0.11 |
| CGGAAGCAAUAUUACGCCCC | -1.49 ± 0.39 |  |
| CGGAAGCAAUAUUACGCUUC | -3.81 ± 0.35 |  |
| CGGAAGCAAUAUUACGGAGU | -4.49 ± 0.39 | -2.12 ± 0.2 |
| CGGAAGCAAUAUUACGGCAA | -2.89 ± 0.22 | -1.41 ± 0.18 |
| CGGAAGCAAUAUUACGGCUU | -3.34 ± 0.3 | -2.75 ± 0.36 |
| CGGAAGCAAUAUUACGGUUG | -0.585 ± 0.059 | -0.061 ± 0.085 |
| CGGAAGCAAUAUUACGUAGC | -2.64 ± 0.38 | -3.47 ± 0.46 |
| CGGAAGCAAUAUUACGUCAU | -3.78 ± 0.16 | -3.33 ± 0.2 |
| CGGAAGCAAUAUUACGUUUU | -3.64 ± 0.23 | -2.95 ± 0.18 |
| CGGCAGCAAUAUUACGAAUC | -4.16 ± 0.39 | -2.23 ± 0.34 |
| CGGCAGCAAUAUUACGAAUU | -3 ± 0.23 | -2.6 ± 0.33 |
| CGGCAGCAAUAUUACGACGC | -3.45 ± 0.28 | -0.355 ± 0.21 |
